Assay results: patent US20230406951A1 (Pfizer, published 2023)
Changes are numbered by the printed parent chain.

T1: human TNFR2 (human, UniProt P20333 23-461)
T1 construct: expressed on the surface of CHO cells; also called HuTNFR2; TNFRSF1B
T1 sequence: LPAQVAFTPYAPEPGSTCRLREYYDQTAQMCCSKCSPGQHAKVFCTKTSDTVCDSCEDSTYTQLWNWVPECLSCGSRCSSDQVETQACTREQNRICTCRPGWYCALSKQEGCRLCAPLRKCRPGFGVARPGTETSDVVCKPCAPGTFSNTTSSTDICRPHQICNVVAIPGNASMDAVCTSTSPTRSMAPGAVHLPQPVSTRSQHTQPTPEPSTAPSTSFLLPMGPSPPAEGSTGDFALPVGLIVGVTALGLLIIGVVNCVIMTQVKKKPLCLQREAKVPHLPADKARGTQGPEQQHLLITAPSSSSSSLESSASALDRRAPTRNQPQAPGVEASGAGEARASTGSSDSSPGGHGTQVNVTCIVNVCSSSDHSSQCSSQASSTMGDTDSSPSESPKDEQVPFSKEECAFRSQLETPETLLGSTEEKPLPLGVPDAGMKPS

B1: IgG 1945 (antibody, name in Kabat numbering, V domains shown)
VH: QVQLVQSGAEVKKPGASVKVSCKVSGFSFPSSGVDWVRQAPGQGLEWLGVTRGEGSTHYNQKFQGRVTITKDTSKSTVYMELSSLRSEDTAVYYCASGEWDEGFVYWGQGTLVTVSS
VL: DIQLTQSPSFLSASVGDRVTITCKASQNVGTAVAWYQQKPGKAPKLLIYAASTLQSGVPSRFSGSGSGTEFTLTISSLQPEDFATYYCLQYSSYPLTFGGGTKVEIKR
notes: IgG
B2: IgG 1909 (antibody, name in Kabat numbering, V domains shown)
VH: B1 VH
VL: B1 VL with L89Q
notes: IgG
B3: IgG 1948 (antibody, name in Kabat numbering, V domains shown)
VH: B1 VH with R52H, E54S
VL: B1 VL
notes: IgG
B4: IgG 1908 (antibody, name in Kabat numbering, V domains shown)
VH: B1 VH with R52K, E54Q
VL: B1 VL with L89Q
notes: IgG
B5: IgG 1942 (antibody, name in Kabat numbering, V domains shown)
VH: B1 VH with R52W, E54V, W100R
VL: B1 VL with Y91K
notes: IgG
B6: IgG 1915 (antibody, name in Kabat numbering, V domains shown)
VH: B1 VH with R52W, E54V, W100R
VL: B1 VL with L89Q
notes: IgG
B7: IgG 1913 (antibody, name in Kabat numbering, V domains shown)
VH: B1 VH with R52W, E54V, W100S, D101T
VL: B1 VL with L89Q
notes: IgG
B8: IgG 1943 (antibody, name in Kabat numbering, V domains shown)
VH: B1 VH with R52W, E54V, W100Q
VL: B1 VL with Y91K
notes: IgG
B9: IgG 1941 (antibody, name in Kabat numbering, V domains shown)
VH: B1 VH with R52W, E54V, W100H
VL: B1 VL with Y91K
notes: IgG
B10: IgG 1952 (antibody, name in Kabat numbering, V domains shown)
VH: B1 VH with R52W, E54V, W100Q
VL: B1 VL
notes: IgG
B11: IgG 1911 (antibody, name in Kabat numbering, V domains shown)
VH: B1 VH with R52L, E54H
VL: B1 VL with L89Q
notes: IgG
B12: IgG 1912 (antibody, name in Kabat numbering, V domains shown)
VH: B1 VH with R52H, E54S
VL: B1 VL with L89Q
notes: IgG
B13: IgG 1940 (antibody, name in Kabat numbering, V domains shown)
VH: B1 VH with R52W, E54V, W100S, D101T
VL: B1 VL with Y91K
notes: IgG
B14: IgG 1910 (antibody, name in Kabat numbering, V domains shown)
VH: B1 VH with R52F, G53Q
VL: B1 VL with L89Q
notes: IgG
B15: IgG 1956 (antibody, name in Kabat numbering, V domains shown)
VH: B1 VH with R52K, E54Q, W100Q
VL: B1 VL with L89Q
notes: IgG
B16: IgG 1953 (antibody, name in Kabat numbering, V domains shown)
VH: B1 VH with R52K, E54Q, W100S, D101T
VL: B1 VL with L89Q
notes: IgG
B17: IgG 1938 (antibody, name in Kabat numbering, V domains shown)
VH: B1 VH with R52L, E54H
VL: B1 VL with Y91K
notes: IgG
B18: IgG 1958 (antibody, name in Kabat numbering, V domains shown)
VH: B1 VH with W100H
VL: B1 VL with L89Q
notes: IgG
B19: IgG 1951 (antibody, name in Kabat numbering, V domains shown)
VH: B1 VH with R52W, E54V, W100R
VL: B1 VL
notes: IgG
B20: IgG 1959 (antibody, name in Kabat numbering, V domains shown)
VH: B1 VH with W100R
VL: B1 VL with L89Q
notes: IgG
B21: IgG 1946 (antibody, name in Kabat numbering, V domains shown)
VH: B1 VH with R52F, G53Q
VL: B1 VL
notes: IgG
B22: IgG 1949 (antibody, name in Kabat numbering, V domains shown)
VH: B1 VH with R52W, E54V, W100S, D101T
VL: B1 VL
notes: IgG
B23: IgG 1947 (antibody, name in Kabat numbering, V domains shown)
VH: B1 VH with R52L, E54H
VL: B1 VL
notes: IgG
B24: IgG 1944 (antibody, name in Kabat numbering, V domains shown)
VH: B1 VH with R52K, E54Q
VL: B1 VL
notes: IgG
B25: IgG 1914 (antibody, name in Kabat numbering, V domains shown)
VH: B1 VH with R52W, E54V, W100H
VL: B1 VL with L89Q
notes: IgG
B26: IgG 1937 (antibody, name in Kabat numbering, V domains shown)
VH: B1 VH with R52F, G53Q
VL: B1 VL with Y91K
notes: IgG
B27: IgG 1961 (antibody, name in Kabat numbering, V domains shown)
VH: B1 VH with R52F, G53Q, W100S, D101T
VL: B1 VL with L89Q
notes: IgG
B28: IgG 1957 (antibody, name in Kabat numbering, V domains shown)
VH: B1 VH with W100S, D101T
VL: B1 VL with L89Q
notes: IgG
B29: IgG 1955 (antibody, name in Kabat numbering, V domains shown)
VH: B1 VH with R52K, E54Q, W100R
VL: B1 VL with L89Q
notes: IgG
B30: IgG 1950 (antibody, name in Kabat numbering, V domains shown)
VH: B1 VH with R52W, E54V, W100H
VL: B1 VL
notes: IgG
B31: IgG 1936 (antibody, name in Kabat numbering, V domains shown)
VH: B1 VH
VL: B1 VL with Y91K
notes: IgG
B32: IgG 1916 (antibody, name in Kabat numbering, V domains shown)
VH: B1 VH with R52W, E54V, W100Q
VL: B1 VL with L89Q
notes: IgG
B33: IgG 1954 (antibody, name in Kabat numbering, V domains shown)
VH: B1 VH with R52K, E54Q, W100H
VL: B1 VL with L89Q
notes: IgG

molecular target: T1, human TNFR2; assay: binding to human TNFR2 CHO cells

binding result | Binder
no binding | B1
no binding | B2
no binding | B3
no binding | B4
no binding | B5
no binding | B6
no binding | B7
no binding | B8
no binding | B9
no binding | B10
no binding | B11
no binding | B12
no binding | B13
no binding | B14
no binding | B15
no binding | B16
no binding | B17

binding result | Binder
no binding | B18
no binding | B19
no binding | B20
no binding | B21
no binding | B22
no binding | B23
no binding | B24
no binding | B25
no binding | B26
no binding | B27
no binding | B28
no binding | B29
no binding | B30
no binding | B31
no binding | B32
no binding | B33
